Experimental data published in PMC9569990 (International Journal of Molecular Sciences, 2022).

B1: Human S100P mutant Δ42–47 (lacks PGFLQS sequence in the 'hinge') (natural protein)
chain: MTELETAMGMIIDVFSRYSGSEGSTQTLTKGELKVLMEKELGKDKDAVDKLLKDLDANGDAQVDFSEFIVFVAAITSACHKYFEKAGLK
notes: S100P protein, human, recombinant, with residues 42-47 (PGFLQS) deleted; source: E. coli, prepared as previously described [28]
B2: Human S100P mutant F89A (natural protein)
chain: MTELETAMGMIIDVFSRYSGSEGSTQTLTKGELKVLMEKELPGFLQSGKDKDAVDKLLKDLDANGDAQVDFSEFIVFVAAITSACHKYAEKAGLK
notes: S100P protein, human, recombinant, with F89A; source: E. coli, prepared as previously described [28]

Legend:
Assay in all cases: SPR; cytokine immobilised on ProteOn GLH sensor chip by amine coupling (9,000-14,000 RU); S100P (wild type or mutant) as analyte, 62 nM-16 µM; 25 °C; 10 mM HEPES, 150 mM NaCl, 1 mM CaCl2, 0.05% TWEEN 20, pH 7.4; heterogeneous ligand model (two ligand populations), one-site model for IL-13; values averaged over analyte concentrations (n = 3-5)
Conditions in all cases: both partners purified
Interleukin-21 = target: T1, Interleukin-21 (human, UniProt Q9HBE4 25-162)
T1 construct: Interleukin-21, human, UniProt Q9HBE4; see the manufacturer's catalogue number; also called IL-21; source: bought: PeproTech (source E. coli)

Interleukin-31 = target: T2, Interleukin-31 (human, UniProt Q6EBC2 24-164)
T2 construct: Interleukin-31, human, UniProt Q6EBC2; see the manufacturer's catalogue number; also called IL-31; source: bought: PeproTech (source E. coli)
T2 sequence (looked up): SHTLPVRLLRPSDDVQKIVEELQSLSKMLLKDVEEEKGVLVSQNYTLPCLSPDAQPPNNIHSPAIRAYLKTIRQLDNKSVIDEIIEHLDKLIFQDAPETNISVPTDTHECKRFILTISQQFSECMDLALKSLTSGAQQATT

Interleukin-35 = target: T3, Interleukin-35 (human, UniProt P29459 23-219; Q14213 21-229)
T3 construct: the chain used for the SCOP family assignment; also called IL-35; source: bought: PeproTech (source HEK293)
T3 sequence (looked up) 1: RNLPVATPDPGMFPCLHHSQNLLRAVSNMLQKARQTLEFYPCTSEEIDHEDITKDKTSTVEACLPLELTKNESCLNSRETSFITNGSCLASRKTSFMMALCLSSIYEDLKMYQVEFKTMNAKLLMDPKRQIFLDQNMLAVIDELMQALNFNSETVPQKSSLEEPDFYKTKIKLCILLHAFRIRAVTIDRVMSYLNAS
T3 sequence (looked up) 2: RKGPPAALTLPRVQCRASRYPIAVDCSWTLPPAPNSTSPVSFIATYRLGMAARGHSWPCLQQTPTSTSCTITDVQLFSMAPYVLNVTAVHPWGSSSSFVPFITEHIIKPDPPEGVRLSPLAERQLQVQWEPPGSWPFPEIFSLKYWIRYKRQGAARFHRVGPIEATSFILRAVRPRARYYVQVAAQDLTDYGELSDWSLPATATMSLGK

Somatotropin = target: T4, Somatotropin (human, UniProt P01241 27-217)
T4 construct: Somatotropin (growth hormone), human, UniProt P01241; see the manufacturer's catalogue number; also called GH; growth hormone; source: bought: PeproTech (source E. coli)

Leptin = target: T5, Leptin (human, UniProt P41159 22-167)
T5 construct: Leptin, human, UniProt P41159; see the manufacturer's catalogue number; source: bought: PeproTech (source E. coli)

Interleukin-26 = target: T6, Interleukin-26 (human, UniProt Q9NPH9 22-171)
T6 construct: Interleukin-26, human, UniProt Q9NPH9; see the manufacturer's catalogue number; also called IL-26; source: bought: R&D Systems (source E. coli)
T6 sequence (looked up): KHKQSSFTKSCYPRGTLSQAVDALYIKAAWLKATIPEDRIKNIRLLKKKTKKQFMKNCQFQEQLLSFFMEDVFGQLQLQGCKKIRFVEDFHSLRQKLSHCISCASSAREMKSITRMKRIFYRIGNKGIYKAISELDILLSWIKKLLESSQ

Interleukin-13 = target: T7, Interleukin-13 (human, UniProt P35225 25-146)
T7 construct: Interleukin-13, human, UniProt P35225; see the manufacturer's catalogue number; also called IL-13; source: bought: PeproTech (source E. coli)
T7 sequence (P35225 25-146): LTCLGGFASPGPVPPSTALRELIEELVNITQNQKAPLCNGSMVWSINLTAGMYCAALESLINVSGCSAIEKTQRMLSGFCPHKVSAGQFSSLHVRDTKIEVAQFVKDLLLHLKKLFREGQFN

T1 sequence (Q9HBE4 25-162): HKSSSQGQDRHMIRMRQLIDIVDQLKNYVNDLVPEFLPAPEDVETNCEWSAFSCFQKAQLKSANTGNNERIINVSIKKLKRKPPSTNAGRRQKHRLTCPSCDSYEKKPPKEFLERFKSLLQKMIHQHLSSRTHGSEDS
T4 sequence (P01241 27-217): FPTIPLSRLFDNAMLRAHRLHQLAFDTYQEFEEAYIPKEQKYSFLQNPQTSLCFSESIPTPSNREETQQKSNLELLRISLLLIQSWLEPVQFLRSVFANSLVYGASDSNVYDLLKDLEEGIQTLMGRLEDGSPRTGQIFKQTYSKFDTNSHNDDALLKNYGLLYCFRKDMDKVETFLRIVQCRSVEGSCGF
T5 sequence (P41159 22-167): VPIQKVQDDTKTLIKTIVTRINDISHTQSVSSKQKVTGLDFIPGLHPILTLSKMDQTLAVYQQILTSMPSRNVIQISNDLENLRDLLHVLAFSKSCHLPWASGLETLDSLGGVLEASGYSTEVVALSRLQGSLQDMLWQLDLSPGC

| Binder | Kd (Interleukin-21) [µM] | Kd (Interleukin-31) [µM] | Kd (Interleukin-35) [µM] | Kd (Somatotropin) [µM] | Kd (Leptin) [µM] | Kd (Interleukin-26) [µM] | Kd (Interleukin-13) [µM] | Kd1 (heterogeneous ligand model, population 1) (Interleukin-21) [nM] | Kd2 (heterogeneous ligand model, population 2; column head printed as Kd1) (Interleukin-21) [nM] | Kd1 (heterogeneous ligand model, population 1) (Interleukin-31) [nM] | Kd2 (heterogeneous ligand model, population 2; column head printed as Kd1) (Interleukin-31) [µM] | Kd1 (heterogeneous ligand model, population 1) (Somatotropin) [µM] | Kd2 (heterogeneous ligand model, population 2; column head printed as Kd1) (Somatotropin) [µM] | Kd1 (heterogeneous ligand model, population 1) (Leptin) [µM] | Kd2 (heterogeneous ligand model, population 2; column head printed as Kd1) (Leptin) [µM] |
| --- | --- | --- | --- | --- | --- | --- | --- | --- | --- | --- | --- | --- | --- | --- | --- |
| B1 | > 100 | > 100 | > 10 | > 100 | > 100 | > 100 | > 100 |  |  |  |  |  |  |  |  |
| B2 |  |  | > 100 |  |  | > 100 | > 100 | 401 | 950 | 202 | 1.18 | 29.2 | 138 | 4.37 | 35.7 |
